The labels stand for the following.
B1: BMS3h-193-12 (other)
VL: DIQMTQSPSSLSASVGDRVTITCRASQTIERRLNWYQQKPGKAPKLLIYLASRLQSGVPSRFSGSGSGTDFTLTISSLQPEDFATYYCHQYESPPLTFGQGTKVEIKR
notes: dAb, single VK
B2: BMS3h-193-10 (other)
VL: DIQMSQSPSTLSASVGDRVTITCRASQTIERRLNWYQQKPGKAPKLLIYLASRLQSGVPSRFSGSGSGTDFTLTISSLQPEDFATYYCHQYESPPLMFGQGTKVEIKR
notes: dAb, single VK
B3: BMS3h-193-19 (other)
VL: DIQMTQSPSSLSASVGDRVTITCRASQTIERRLNWYQQKPGKAPKLLIYLASRLQSGVPSRFSGSGSGTEFTLTISSLQPEDFATYYCHQYESPPLTFGQGTKVEIKR
notes: dAb, single VK
B4: BMS3h-193-18 (other)
VL: DIQMTQSPSSLSASVGDRVTITCRASQTIGRRLNWYQQKPGKAPKLLIYLASRLQSGVPSRFSGSGSGSDFTLTISSLQPEDFATYYCHQYESPPLTFGQGTKVEIKR
notes: dAb, single VK
B5: BMS3h-193-26 (other)
VL: DIQMTQSPSSLSASVGDRVTITCRASQPIERRLNWYQQKPGKAPKLLIYLASRLQSGVPSRFSGSGSGTDFTLTISSLQPEDFATYYCHQYESPPLTFGQGTKVEIKR
notes: dAb, single VK
B6: BMS3h-193-27 (other)
VL: DIQMTQSPSSLSASVGDRVTITCRASQTIGRRLNWYQQKPGKAPKLLIYLASRLQSGVPSRFSGSGSGTDFTLTISSLQPEDFATYYCHQYESPPLTFGQGTKVEIKR
notes: dAb, single VK
B7: BMS3h-193-11 (other)
VL: DIQMTQSPSSLSASVGDRVTITCRASQTIERRLNWYQQKPGKDPKLLIYLASRLQSGVPSRFSGSGSGTDFTLTISSLQPEDFATYYCHQYESPPLTFGQGTKVEIKR
notes: dAb, single VK
B8: BMS3h-193-25 (other)
VL: DIQMTQSPSSLSASVGDRVTITCRASQTIERRLNWYQQKPGKAPRLLIYLATRLQSGVPSRFSGSGSGTDFTLTISSLQPEDFATYYCHQYESPPLTFGQGTKVEIKR
notes: dAb, single VK
B9: BMS3h-193-7 (other)
VL: DIQITQSPSSLSASVGDRVTITCRASQTIERRLNWYQQKPGKDPKLLIYLASRLQSGVPSRFSGSGSGTDFTLTISSLQPEDFATYYCHQYESPPLTFGQGTKVEIKR
notes: dAb, single VK
B10: BMS3h-193-30 (other)
VL: DIQMTQSPSSLSASVGDRVTITCRASQSIERRLNWYQQKPGKAPKLLIYLASRLQSGVPSRFSGSGSGTDFTLTISSLQPEDFATYYCHQYESPPLTFGQGTKVEIKR
notes: dAb, single VK
B11: BMS3h-198-9 (other)
VH: EVQLLESGGGLVQPGGSLRLSCAASGFTFAGYEMWWVRQAPGKGLERVSAISGSGGSTYYADSVKGRFTISRDDSKNTLYLQMNSLRAEDTAVYYCAKEPYSFDYWGQGTLVTVSS
notes: dAb, single VH
B12: BMS3h-198-22 (other)
VH: EVQLLESGGGLVQPGGSLRLSCAASGFTFAGYEMWWVRQAPGKGLERVSAISGSGGSTYYADSVKGRFTISRDDSKNTLYLQMNSLRAEDTAVYYCAKEPYSYDYWGHGTLVTVSS
notes: dAb, single VH
B13: BMS3h-198-19 (other)
VH: EVQLLESGGGLVQPGGSLRLSCAASGFTFAGYELWWVRQAPGKGLERVSAISGSGGSTYYADSVKGRFTISRDDSKNTLYLQMNSLRAEDTAVYYCARDPYSFDYRGQGTLVTVSS
notes: dAb, single VH
B14: BMS3h-198-11 (other)
VH: EVQLLESGGGLVQPGGSLRLSCAASGFTFAGYEMWWVRQAPGKGLERVSAISGSGGSTYYADSVKGRFTISRDDSKNTLYLQMNSLRAEDTAVYYCARDPYSFDYWGQGTLVSVSS
notes: dAb, single VH
B15: BMS3h-198-37 (other)
VH: EVQLLESGGGLVQPGGSLRLSCAASGFTFAGYELWWVRQAPGKGLERVSAISGSGGSTYYADSVKGRFTISRDDSKNTLYLQMNSLRAEDTAVYYCAKDPYSFDYRGQGTLVTVSS
notes: dAb, single VH
B16: BMS3h-198-14 (other)
VH: EVQLLESGGGLVQPGGSLRLSCAASGFTFAGYEMWWFRQAPGKGLERVSAISGSGGSTYYADSVKGRFTISRDDTKNTLYLQMNSLRAEDTAVYYCAKDPYSFDYWRQGTLVTVSS
notes: dAb, single VH
B17: BMS3h-198-10 (other)
VH: EVQLLESGGGLVQPGGSLRLSCAASGSTIAGYEMWWVRQAPGKGLERVSAISGSGGSTYYADSVKGRFTISRDDSKNTLYLQMNSLRAEDTAVYYCAKDPYSFDYWGQGTLVTVSS
notes: dAb, single VH
B18: BMS3h-198-38 (other)
VH: EVQLLESGGGLVQPGGSLRLSCAASGFTFAGYELWWVRQAPGKGLERVSAISGSGGSTYYADSVKGRFTISRDDSKNTLYLQMNSLRAEDTAVYYCARDPYSFDYWGQGTLVTVSS
notes: dAb, single VH
B19: BMS3h-198-17 (other)
VH: EVQLLESGGGLVQPGGSLRLSCAASGFTFAGYEMWWVRQAPGKGLERVSAISGSGGSTYYADSVKGRFTISRDDSKNTLYLQMNSLRAEDTAVYYCARDPYSFDYWGQGTLVTVSS
notes: dAb, single VH
B20: BMS3h-198-34 (other)
VH: EVQLLESGGGLVQPGGSLRLSCAASGFTFAGYEMWWVRQAPGKGLERVSAISGSGGSTYYADSVKGRFTISRDDSKNTLYLQMNSLRAEDTAVYYCAKDPYSFDNWGQGTLVTVSS
notes: dAb, single VH
B21: BMS3h-198-32 (other)
VH: EVQLLESGGGLVQPGGSLRLSCAASGFTFAGYEMWWFRQAPGKGLERVSAISGSGGSTYYADSVKGRFTISRDNSKNTLYLQMNSLRAEDTAVYYCAKDPYSFDNWGQGTLVTVSS
notes: dAb, single VH
B22: BMS3h-198-31 (other)
VH: EVQLLESGGGLVQPGGSLRLSCAASGFTFAGYEMWWVRQAPGKGLERVSAISGSGGSTYYADSVKGRFTISRDNSKNTLYLQMNSLRAEDTAVYHCAKEPYSYDYWGQGTLVTVSS
notes: dAb, single VH
B23: BMS3h-198-33 (other)
VH: EVQLLESGGGLVQPGGSLRLSCAASGFTFAGYEMWWVRQAPGKGLERVSAISGSGGSTYYADSVKGRFTISRDDSKNTLYLQMNSLRAEDTAVYYCAKEPYSYDYWGQGTLVTVSS
notes: dAb, single VH
B24: BMS3h-37-2 (other)
VH: EVQLLESGGGLVQPGGSLRLSCAASGFTFEWYEMQWVRRAPGKGLEWVSAISGDGYRTYYADSVKGRFTISRDNSKNTLYLQMNSLRAEDTAVYYCAKELGYFDYWGRGTLVTVSS
notes: domain antibody (dAb): single human VH domain
B25: BMS3h-38-3 (other)
VH: EVQLLASGGGLVQPGGSLRLSCAASGFTFEEEEMIWVRQAPGKGLEWISAISGSGGSTYYADSVKGRFTISRDNSKNTLYLQMNSLRAEDTAVYYCGKEPFRFDYWGQGTLVTVSS
notes: as for B24
B26: BMS3h-38-1 (other)
VH: EVQLLGSGGGLVQPGGSLRLSCAASGFTFEEEEMIWVRQAPGKGLEWVSAISGSGGSTYYADSVKGRFTISRDNSKNTLYLQMNSLRAEDTAVYYCSKEPFRFDYWGQGTLVTVSS
notes: as for B24
B27: BMS3h-198-1 (other)
VH: EVQLLESGGGLVQPGGSLRLSCAASGSTIAGYEMWWVRQAPGKGLERVSAISGSGGSTYYADSVKGRFTISRDDSKNTLYLQMNSLRAEDTAVYYCARDPYSFDYWGQGTLVTVSS
notes: as for B24
B28: BMS3h-37-5 (other)
VH: EVQLLESGGGLVQPGGSLRLSCAASGFTFEWYEMQWVRQAPGKGLEWISAISGDGYRTYYADSVKGRFTISRDNSKNTLYLQMNSLRAEDTAVYYCAKELGYFDYRVQGTLVTVSS
notes: as for B24
B29: BMS3h-38-2 (other)
VH: EVQLLASGGGLVQPGGSLRLSCAASGFTFEEEEMIWVRQAPGKGLEWVSAISGSGGSTYYADSVKGRFTISRDNSKNTLYLQMNSLRAEDTAVYYCGKEPFRYDYWGQGTLVTVSS
notes: as for B24
B30: BMS3h-41-1 (other)
VH: EVQLLESGEGLVQPGGSLRLSCAASGFTFTEHEMIWVRQAPGKGLEWVSSISGNGANTYYADSVKGRFTISRDNSKNTLYLQMNSLRPEDTAVYYCAKEPLRFDYWGQGTLVTVSS
notes: as for B24
B31: BMS3h-43-1 (other)
VH: EVQLLESGGGLVQPGGSLRLSCTASGFTFNMYEMSWVRQAPGKGLEWVSGISRRGFTTYYADSVKGRFTISRDNSKNTLYLQMNSLRAEDTAVYYCAKEPITYDLRYARFDYSGQGTLVTVSS
notes: as for B24

As usually defined, the EC50 is the concentration giving half of the maximal effect. Read a high EC50 as a less potent agent. By Kd is commonly meant the concentration at which binding is half-saturated. Lower therefore signals higher affinity. One may read the koff as the rate constant with which the complex falls apart. The low end stands for slow dissociation, the high end for fast dissociation. What is called kon is the second-order rate constant of association.

Several values for one entry are separate records, joined by “and”; a condition that tells them apart may be missing. Equal values may be shown once.
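For EC50 in this document: Neutravidin-coated 384-well plate, dAb–human CD40 complex bound for 2 h at room temperature, absorbance read at 450 nm after HCl stop.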

One assay deals with T1, human CD40 (BMS, CY24FEB06-01) (human, UniProt P25942 21-193).
T1 construct: Soluble reagent of the bead and ELISA RBA; It is detected with an anti-human IgG (Fc) mAb, so it may be a CD40-Ig fusion
T1 sequence (P25942 21-193 limits assumed): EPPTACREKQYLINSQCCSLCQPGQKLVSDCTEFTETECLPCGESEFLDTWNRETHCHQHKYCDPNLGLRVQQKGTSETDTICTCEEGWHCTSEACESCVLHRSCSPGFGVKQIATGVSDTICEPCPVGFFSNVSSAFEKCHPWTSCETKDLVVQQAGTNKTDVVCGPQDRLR
The assay is described as follows: ELISA RBA, competition with IZ-CD40L. (An ELISA detects its analyte on a solid surface through an enzyme-linked reagent.)
Method: Clear walled High Bind, 384-well plates (Corning, UK) were coated with 25 μl of 1 μg/ml Neutravidin in 0.2 M carbonate-bicarbonate buffer, pH 9.4 overnight at 4° C. The following day, assay plates were washed with 0.1% (v/v) Tween PBS buffer, blocked with 1% (w/v) BSA in PBS for 1 hour at room temperature and washed again. […] Following washing of the assay plate, the dAb:human CD40 complex was incubated in the assay plate at room temperature for 2 hours with gentle agitation. […] Absorbance signal was measured using a SpectraMax® M5e plate reader (Molecular Devices) at 450 nm following neutralization with 1M HCl solution.
As for B1, the midpoint of the response, the EC50, lay at 200 nM.

For B2, it took 200 nM to reach a half-maximal effect (EC50).

On to B3, for which the concentration giving a half-maximal response (EC50) stood at 100 nM.

For B4, the EC50 amounted to 100 nM.

As for B5, the EC50 was found to be 100 nM.

For B6, the response was half-maximal at 100 nM (EC50).

B7 gave a concentration for a half-maximal effect (EC50) of 300 nM.

For B8, the midpoint of the response, the EC50, lay at 140 nM.

The molecule B9 registered an EC50 of 300 nM.

Regarding B10, the EC50 was 290 nM and 116 nM.

B11: the 50% effective concentration (EC50) came to 20 nM.

In turn, B12 showed an EC50 of 10 nM.

Regarding B13, the EC50 is 7.9 nM.

Molecule B14 gave a 50% effective concentration (EC50) of 20 nM.

B15 came in with a half-maximal effective concentration (EC50) of 15.1 nM.

B16: the concentration for a half-maximal effect (EC50) came to 9 nM.

Take B17: the EC50 was 35 nM.

B18 registered an EC50 of 7.2 nM.

In turn, B19 displayed an EC50 of 20 nM.

B20 came in with an EC50 of 32.6 nM.

B21: a half-maximal response (EC50) required 24.7 nM.

In turn, B22 displayed an EC50 of 6.1 nM.

The molecule B23 came in with a concentration giving a half-maximal response (EC50) of 8.7 nM.

The target in the next assay is T2, biotinylated human CD40 (BMS) (human, UniProt P25942 21-193, limits assumed, biotinylated (sites not given)).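 Also: binding kinetics of dAbs flowed over the CD40 surface at 25 °C in HBS-EP, 300 s dissociation, signal corrected by reference cell and buffer blank, global Langmuir fit.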
T2 construct: Ligand immobilised on the streptavidin BIAcore chip
T2 sequence (P25942 21-193 limits assumed): as above
Nature of the assay: BIAcore SPR, immobilised biotinylated human CD40, 1:1 fit. (Surface plasmon resonance follows binding to a sensor surface in real time, without labels.)
For B24, the dissociation constant (Kd) was 4 nM, the dissociation rate constant (koff) was 0.00041 s⁻¹ and the kon stood at 100000 M⁻¹ s⁻¹.

B25 showed a Kd of 5.5 nM, a dissociation rate constant (koff) of 0.00041 s⁻¹ and an on-rate constant (kon) of 75000 M⁻¹ s⁻¹.

For the molecule B26, the dissociation constant (Kd) was found to be 33 nM, the koff was 0.0011 s⁻¹ and the kon was 32000 M⁻¹ s⁻¹.

B27 registered a Kd of 13 nM, an off-rate constant (koff) of 0.00018 s⁻¹ and a kon of 15000 M⁻¹ s⁻¹.

Consider B28, for which the dissociation constant Kd amounted to 5.5 nM, the dissociation rate constant (koff) worked out at 0.00022 s⁻¹ and the kon turned out to be 39000 M⁻¹ s⁻¹.

As to B29, the Kd amounted to 12 nM, the dissociation rate constant (koff) came out at 0.00075 s⁻¹ and the kon stood at 61000 M⁻¹ s⁻¹.

The molecule B30 came in with a Kd of 11 nM, an off-rate (koff) of 0.00056 s⁻¹ and a kon of 51000 M⁻¹ s⁻¹.

Molecule B31 showed a Kd of 140 nM, a koff of 0.00063 s⁻¹ and a kon of 4400 M⁻¹ s⁻¹.

The record behind these values is US20200199244A1 (published 2020).
